Source: patent US20130004519A1

Columns and labels:
[1] = molecular target: His-tagged human tenascin-C (human) (UniProt P24821); assay: pull-down from HEK293 conditioned medium on tenascin-C-Sepharose 4B, nanoLC-MSMS
[2] = molecular target: His-tagged human tenascin-C (human) (UniProt P24821); assay: pull-down on tenascin-C-Sepharose 4B, spectral counting normalized to background proteins
[3] = molecular target: His-tagged human tenascin-C (human) (UniProt P24821); assay: pull-down on tenascin-C-Sepharose 4B, multiple reaction monitoring
[4] = molecular target: horse fibronectin coupled to CNBr-activated Sepharose 4B (horse) (UniProt Q28377); assay: pull-down from HEK293 conditioned medium on horse fibronectin-Sepharose 4B, nanoLC-MSMS
[5] = molecular target: His-tagged human tenascin-C (human) (UniProt P24821); assay: pull-down from HEK293 conditioned medium on tenascin-C-Sepharose 4B, nanoLC-MSMS; listed as background protein (control column score 720)
[6] = molecular target: horse fibronectin coupled to CNBr-activated Sepharose 4B (horse) (UniProt Q28377); assay: pull-down from HEK293 conditioned medium on horse fibronectin-Sepharose 4B, nanoLC-MSMS; listed as background protein (control column score 720)
[7] = molecular target: His-tagged human tenascin-C (human) (UniProt P24821); assay: pull-down from HEK293 conditioned medium on tenascin-C-Sepharose 4B, nanoLC-MSMS; listed as background protein (control column count 44)
[8] = molecular target: horse fibronectin coupled to CNBr-activated Sepharose 4B (horse) (UniProt Q28377); assay: pull-down from HEK293 conditioned medium on horse fibronectin-Sepharose 4B, nanoLC-MSMS; listed as background protein (control column count 44)
[9] = molecular target: His-tagged human tenascin-C (human) (UniProt P24821); assay: pull-down from HEK293 conditioned medium on tenascin-C-Sepharose 4B, nanoLC-MSMS; listed as background protein (control column score 833)
[10] = molecular target: His-tagged human tenascin-C (human) (UniProt P24821); assay: pull-down from HEK293 conditioned medium on tenascin-C-Sepharose 4B, nanoLC-MSMS; listed as background protein (control column count 32)
[11] = molecular target: horse fibronectin coupled to CNBr-activated Sepharose 4B (horse) (UniProt Q28377); assay: pull-down from HEK293 conditioned medium on horse fibronectin-Sepharose 4B, nanoLC-MSMS; listed as background protein (control column score 833)
[12] = molecular target: horse fibronectin coupled to CNBr-activated Sepharose 4B (horse) (UniProt Q28377); assay: pull-down from HEK293 conditioned medium on horse fibronectin-Sepharose 4B, nanoLC-MSMS; listed as background protein (control column count 32)

horse fibronectin coupled to CNBr-activated Sepharose 4B (horse), sequence (Q28377 32-2477 limits assumed): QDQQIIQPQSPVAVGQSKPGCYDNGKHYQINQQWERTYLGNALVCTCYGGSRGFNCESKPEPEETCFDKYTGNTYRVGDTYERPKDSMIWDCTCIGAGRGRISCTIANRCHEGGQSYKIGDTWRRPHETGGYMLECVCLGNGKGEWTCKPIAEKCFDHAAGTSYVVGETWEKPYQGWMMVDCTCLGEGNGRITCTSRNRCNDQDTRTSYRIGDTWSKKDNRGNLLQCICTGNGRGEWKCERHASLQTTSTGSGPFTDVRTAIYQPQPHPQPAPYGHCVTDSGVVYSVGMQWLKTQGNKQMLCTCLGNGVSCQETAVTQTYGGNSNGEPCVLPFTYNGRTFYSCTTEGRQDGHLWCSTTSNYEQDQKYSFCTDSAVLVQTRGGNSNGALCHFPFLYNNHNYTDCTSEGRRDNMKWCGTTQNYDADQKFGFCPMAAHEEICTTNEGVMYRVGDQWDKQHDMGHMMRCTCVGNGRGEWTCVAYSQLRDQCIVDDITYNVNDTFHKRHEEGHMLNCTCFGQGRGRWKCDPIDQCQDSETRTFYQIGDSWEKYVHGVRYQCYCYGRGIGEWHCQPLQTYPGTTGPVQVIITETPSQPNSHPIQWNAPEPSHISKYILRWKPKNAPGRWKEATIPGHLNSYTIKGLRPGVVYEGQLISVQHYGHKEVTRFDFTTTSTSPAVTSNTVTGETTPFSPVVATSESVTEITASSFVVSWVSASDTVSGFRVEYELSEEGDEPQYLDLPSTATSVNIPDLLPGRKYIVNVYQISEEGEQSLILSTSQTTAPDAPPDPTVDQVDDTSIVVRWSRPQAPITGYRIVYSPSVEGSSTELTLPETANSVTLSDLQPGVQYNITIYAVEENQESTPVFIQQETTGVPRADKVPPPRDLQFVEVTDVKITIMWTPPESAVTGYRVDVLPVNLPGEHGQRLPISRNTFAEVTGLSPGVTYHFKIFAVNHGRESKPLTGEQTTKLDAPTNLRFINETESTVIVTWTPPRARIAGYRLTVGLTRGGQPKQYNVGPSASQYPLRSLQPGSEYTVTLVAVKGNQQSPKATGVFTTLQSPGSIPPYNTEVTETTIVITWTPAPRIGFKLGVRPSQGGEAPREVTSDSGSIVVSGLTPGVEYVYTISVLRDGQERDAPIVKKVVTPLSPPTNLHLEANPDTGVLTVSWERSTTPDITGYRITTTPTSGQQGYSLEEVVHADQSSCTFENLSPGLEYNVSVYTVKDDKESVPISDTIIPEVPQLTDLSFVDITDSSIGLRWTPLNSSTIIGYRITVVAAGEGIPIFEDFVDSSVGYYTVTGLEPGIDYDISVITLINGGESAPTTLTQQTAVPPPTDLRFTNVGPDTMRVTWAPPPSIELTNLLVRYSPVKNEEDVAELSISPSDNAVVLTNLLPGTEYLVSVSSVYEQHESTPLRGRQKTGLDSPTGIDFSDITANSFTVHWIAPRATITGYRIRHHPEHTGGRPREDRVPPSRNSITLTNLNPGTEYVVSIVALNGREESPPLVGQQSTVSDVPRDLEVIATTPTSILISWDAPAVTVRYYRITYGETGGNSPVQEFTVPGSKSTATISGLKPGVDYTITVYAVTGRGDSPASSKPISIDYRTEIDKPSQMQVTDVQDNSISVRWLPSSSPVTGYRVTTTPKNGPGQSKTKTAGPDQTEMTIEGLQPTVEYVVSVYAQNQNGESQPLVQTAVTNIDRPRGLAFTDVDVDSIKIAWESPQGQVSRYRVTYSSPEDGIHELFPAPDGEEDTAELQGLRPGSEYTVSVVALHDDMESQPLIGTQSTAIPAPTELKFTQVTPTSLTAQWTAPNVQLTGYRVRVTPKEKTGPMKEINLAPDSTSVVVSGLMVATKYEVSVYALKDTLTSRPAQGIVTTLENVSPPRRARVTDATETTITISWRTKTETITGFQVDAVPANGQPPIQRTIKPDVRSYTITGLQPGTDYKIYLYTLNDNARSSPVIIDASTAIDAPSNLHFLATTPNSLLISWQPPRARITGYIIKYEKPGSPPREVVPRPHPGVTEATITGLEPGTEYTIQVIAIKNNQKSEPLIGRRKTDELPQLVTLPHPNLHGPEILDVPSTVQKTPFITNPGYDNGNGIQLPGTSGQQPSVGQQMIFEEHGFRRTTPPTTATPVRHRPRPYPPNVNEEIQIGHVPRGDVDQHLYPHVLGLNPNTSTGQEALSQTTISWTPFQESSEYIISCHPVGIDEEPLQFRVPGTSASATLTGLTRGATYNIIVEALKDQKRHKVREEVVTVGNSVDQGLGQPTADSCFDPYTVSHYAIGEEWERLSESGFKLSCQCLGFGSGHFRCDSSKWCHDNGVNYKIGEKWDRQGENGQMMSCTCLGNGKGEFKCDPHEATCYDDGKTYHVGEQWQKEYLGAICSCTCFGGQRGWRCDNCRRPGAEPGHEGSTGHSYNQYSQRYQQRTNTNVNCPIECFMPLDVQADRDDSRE
His-tagged human tenascin-C (human), sequence (P24821 23-2201): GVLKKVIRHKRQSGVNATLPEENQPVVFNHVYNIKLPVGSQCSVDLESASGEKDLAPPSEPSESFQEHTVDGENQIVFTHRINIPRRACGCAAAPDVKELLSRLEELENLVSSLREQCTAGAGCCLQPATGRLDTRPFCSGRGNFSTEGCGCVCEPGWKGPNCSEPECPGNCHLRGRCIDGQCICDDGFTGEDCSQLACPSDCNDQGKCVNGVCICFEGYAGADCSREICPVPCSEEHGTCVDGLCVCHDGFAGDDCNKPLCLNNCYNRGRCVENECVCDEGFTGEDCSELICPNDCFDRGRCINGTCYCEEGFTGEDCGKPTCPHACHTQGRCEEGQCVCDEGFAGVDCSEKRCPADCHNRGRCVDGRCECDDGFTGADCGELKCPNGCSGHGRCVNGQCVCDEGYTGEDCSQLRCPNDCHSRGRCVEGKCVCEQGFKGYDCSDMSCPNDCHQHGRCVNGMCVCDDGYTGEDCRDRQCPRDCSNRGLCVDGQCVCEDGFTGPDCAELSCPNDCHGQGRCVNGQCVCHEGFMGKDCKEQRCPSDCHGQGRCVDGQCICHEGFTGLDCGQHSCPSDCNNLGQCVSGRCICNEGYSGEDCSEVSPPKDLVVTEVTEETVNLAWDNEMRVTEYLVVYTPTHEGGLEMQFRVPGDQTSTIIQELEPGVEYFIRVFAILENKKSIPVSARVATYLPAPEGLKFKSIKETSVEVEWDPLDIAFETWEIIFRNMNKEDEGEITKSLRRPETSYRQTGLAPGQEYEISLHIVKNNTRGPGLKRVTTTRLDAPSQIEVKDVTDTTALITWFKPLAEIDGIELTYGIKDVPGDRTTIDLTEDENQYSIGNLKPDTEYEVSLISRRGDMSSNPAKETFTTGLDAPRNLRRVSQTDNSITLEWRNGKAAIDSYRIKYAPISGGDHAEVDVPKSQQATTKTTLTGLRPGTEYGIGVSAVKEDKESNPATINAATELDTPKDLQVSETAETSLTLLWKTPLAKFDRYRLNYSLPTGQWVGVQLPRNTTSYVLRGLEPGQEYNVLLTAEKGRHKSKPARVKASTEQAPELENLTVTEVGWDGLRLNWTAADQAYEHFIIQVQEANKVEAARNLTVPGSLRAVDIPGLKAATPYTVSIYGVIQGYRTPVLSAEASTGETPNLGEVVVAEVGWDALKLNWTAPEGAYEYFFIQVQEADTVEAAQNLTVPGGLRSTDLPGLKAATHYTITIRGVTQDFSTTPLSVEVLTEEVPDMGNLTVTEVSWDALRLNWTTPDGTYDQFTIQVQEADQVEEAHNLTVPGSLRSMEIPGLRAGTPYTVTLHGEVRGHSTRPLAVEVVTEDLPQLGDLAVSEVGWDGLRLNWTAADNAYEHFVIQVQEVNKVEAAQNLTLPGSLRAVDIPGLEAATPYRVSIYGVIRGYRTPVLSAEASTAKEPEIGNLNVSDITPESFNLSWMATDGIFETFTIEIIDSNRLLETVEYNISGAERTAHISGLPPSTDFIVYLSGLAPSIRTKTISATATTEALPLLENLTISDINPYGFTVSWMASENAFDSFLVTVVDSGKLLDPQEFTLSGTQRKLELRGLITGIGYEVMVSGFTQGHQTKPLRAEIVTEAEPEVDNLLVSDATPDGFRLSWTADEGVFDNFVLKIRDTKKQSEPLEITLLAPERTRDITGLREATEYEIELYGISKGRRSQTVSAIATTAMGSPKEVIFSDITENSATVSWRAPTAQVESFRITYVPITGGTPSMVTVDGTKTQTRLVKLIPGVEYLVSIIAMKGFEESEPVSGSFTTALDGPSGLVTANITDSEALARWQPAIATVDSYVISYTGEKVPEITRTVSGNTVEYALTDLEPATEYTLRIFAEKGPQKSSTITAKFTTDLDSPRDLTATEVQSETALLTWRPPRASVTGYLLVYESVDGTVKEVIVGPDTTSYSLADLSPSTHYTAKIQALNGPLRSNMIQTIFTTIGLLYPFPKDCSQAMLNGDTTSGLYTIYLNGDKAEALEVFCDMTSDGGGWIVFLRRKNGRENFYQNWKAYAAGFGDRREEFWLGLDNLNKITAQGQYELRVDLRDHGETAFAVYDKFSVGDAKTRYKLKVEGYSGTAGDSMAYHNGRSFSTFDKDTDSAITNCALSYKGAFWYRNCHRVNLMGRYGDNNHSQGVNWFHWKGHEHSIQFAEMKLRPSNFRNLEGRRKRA

Substance | MASCOT Score (tenascin-C) [1] | spectrum count (tenascin-C) [1] | normalized enrichment (spectrum count), tenascin-C against control [2] | normalized enrichment (MRM), tenascin-C against control [3] | further results
Clusterin (from UniProt P10909 23-449) | 258 | 11 | 4.2 fold | 2.1 fold | 
Fibronectin from HEK293 conditioned medium (from UniProt P02751 32-2477) |  |  |  |  | MASCOT Score (fibronectin) [4]: 2210; spectrum count (fibronectin) [4]: 135
Fibronectin from HEK293 conditioned medium, P02751 32-2477 | 544 | 25 | 19.2 fold | 4.8 fold | 
Nidogen-2 (from UniProt Q14112 31-1375) | 437 | 15 | 5.8 fold | 2.2 fold | 
Peptidyl-prolyl cis-trans isomerase A (PPIA) from HEK293 conditioned medium (from UniProt P62937 2-165) (enzyme) |  |  |  |  | MASCOT Score (tenascin-C) [5]: 675; MASCOT Score (fibronectin) [6]: 676; spectrum count (tenascin-C) [7]: 56; spectrum count (fibronectin) [8]: 36
Phosphoglycerate kinase 1 (from UniProt P00558 2-417) (enzyme) | 402 | 26 | 3.3 fold | 1.2 fold | 
alpha-enolase (ENOA) from HEK293 conditioned medium (from UniProt P06733 2-434) (enzyme) |  |  |  |  | MASCOT Score (tenascin-C) [9]: 1040; spectrum count (tenascin-C) [10]: 42; MASCOT Score (fibronectin) [11]: 701; spectrum count (fibronectin) [12]: 26
